Assay results as given in PMC9394474.

B1: unnamed (parent)
chain 1: TIEALFQ
chain 2: not shown

Variants of: B1
Assay: ITC
Settings: with partner chain of the complex shown

Q: With chain 1 T1A as the variant, how does the Kd read?
A: 17 µM
